Test results reported in the supplement of paper PMC9112550, “Optimization of the antimicrobial peptide Bac7 by deep mutational scanning” (BMC Biology, 2022).

Test system: Escherichia coli TOP10
Assay: shrunken log2 fold change of peptide-encoding DNA abundance (4.5 h post-induction vs induction); higher = less antimicrobial activity (less host growth inhibition)
Settings: time post-induction: 4.5 h; library: site-saturation at positions 5, 18, 19, 20
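Also: peptides expressed intracellularly from a pBAD plasmid library in pooled LB shake-flask culture, induced with 0.3% L-arabinose, DNA abundance read by NGS, three biological replicates, DESeq2 with apeglm shrinkage.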

Sequence	shrunken log2 fold change
RRIRGRPPRLPRPRPRPHQCPRP	-0.0129
RRIRSRPPRLPRPRPRPMQMPRP	0.512
RRIRNRPPRLPRPRPRPGPMPRP	-0.0257
RRIRPRPPRLPRPRPRPMEFPRP	0.00564
RRIRVRPPRLPRPRPRPTRGPRP	0.412
RRIRIRPPRLPRPRPRPECLPRP	0.0969
RRIRNRPPRLPRPRPRPHLIPRP	-0.00549
RRIRIRPPRLPRPRPRPWDTPRP	-0.231
RRIRCRPPRLPRPRPRPKCHPRP	0.205
RRIRMRPPRLPRPRPRPVAWPRP	0.213
RRIRRRPPRLPRPRPRPCLEPRP	0.11
RRIRTRPPRLPRPRPRPEMMPRP	-0.0411
RRIRCRPPRLPRPRPRPEEIPRP	-0.0231
RRIRYRPPRLPRPRPRPYCTPRP	-1.54
RRIRWRPPRLPRPRPRPSDLPRP	-0.175
RRIRSRPPRLPRPRPRPTKVPRP	-0.213
RRIRWRPPRLPRPRPRPQMKPRP	-0.316
RRIRPRPPRLPRPRPRPNTNPRP	-0.329
RRIRTRPPRLPRPRPRPETYPRP	-0.275
RRIRDRPPRLPRPRPRPAIMPRP	0.373
RRIRMRPPRLPRPRPRPEEFPRP	0.0141
RRIRHRPPRLPRPRPRPMSYPRP	-0.0194
RRIRWRPPRLPRPRPRPQSKPRP	-0.0549
RRIRSRPPRLPRPRPRPEDCPRP	0.0867
RRIRNRPPRLPRPRPRPFTYPRP	-0.0143

Sequence	shrunken log2 fold change
RRIRGRPPRLPRPRPRPQPNPRP	0.679
RRIRGRPPRLPRPRPRPIIDPRP	0.859
RRIRRRPPRLPRPRPRPNYVPRP	-0.338
RRIRHRPPRLPRPRPRPTYSPRP	-0.489
RRIRVRPPRLPRPRPRPDNPPRP	-0.101
RRIRMRPPRLPRPRPRPMTVPRP	0.0944
RRIRCRPPRLPRPRPRPTVAPRP	0.0998
RRIRIRPPRLPRPRPRPQSHPRP	-0.383
RRIRLRPPRLPRPRPRPLSHPRP	0.2
RRIRFRPPRLPRPRPRPNHYPRP	-0.62
RRIRDRPPRLPRPRPRPDPMPRP	0.0611
RRIRMRPPRLPRPRPRPHDFPRP	0.143
RRIRWRPPRLPRPRPRPISPPRP	-0.887
RRIRPRPPRLPRPRPRPTQHPRP	0.262
RRIRCRPPRLPRPRPRPLRFPRP	0.0668
RRIRWRPPRLPRPRPRPIWPPRP	0.684
RRIRGRPPRLPRPRPRPCVTPRP	1.34
RRIRNRPPRLPRPRPRPFGEPRP	-0.0176
RRIRWRPPRLPRPRPRPSGPPRP	0.114
RRIRGRPPRLPRPRPRPGENPRP	-0.0369
RRIRWRPPRLPRPRPRPDAQPRP	1.48
RRIRTRPPRLPRPRPRPFLLPRP	-0.743
RRIRFRPPRLPRPRPRPMNGPRP	-0.0885
RRIRVRPPRLPRPRPRPTLYPRP	-0.155
RRIRFRPPRLPRPRPRPFKGPRP	-0.23

Sequence	shrunken log2 fold change
RRIRTRPPRLPRPRPRPVVSPRP	0.075
RRIRKRPPRLPRPRPRPAEEPRP	0.906
RRIRRRPPRLPRPRPRPRDYPRP	-0.116
RRIRMRPPRLPRPRPRPTNKPRP	0.111
RRIRIRPPRLPRPRPRPRMNPRP	-0.593
RRIRTRPPRLPRPRPRPPMVPRP	0.152
RRIRIRPPRLPRPRPRPTTEPRP	0.086
RRIRARPPRLPRPRPRPAMMPRP	0.511
RRIRIRPPRLPRPRPRPEHLPRP	-0.105
RRIRCRPPRLPRPRPRPLVRPRP	0.0749
RRIRKRPPRLPRPRPRPSGNPRP	0.267
RRIRRRPPRLPRPRPRPWDPPRP	-0.119
RRIRGRPPRLPRPRPRPIGEPRP	0.187
RRIRHRPPRLPRPRPRPGIVPRP	-0.286
RRIRQRPPRLPRPRPRPHTQPRP	0.0338
RRIRKRPPRLPRPRPRPILCPRP	0.00753
RRIRQRPPRLPRPRPRPPITPRP	-0.0813
RRIRERPPRLPRPRPRPLQSPRP	-0.306
RRIRSRPPRLPRPRPRPNCHPRP	-0.316
RRIRVRPPRLPRPRPRPVDYPRP	-0.034
RRIRERPPRLPRPRPRPDREPRP	-0.0729
RRIRFRPPRLPRPRPRPAFDPRP	0.128
RRIRVRPPRLPRPRPRPEPCPRP	-0.0507
RRIRWRPPRLPRPRPRPLFYPRP	-0.427
RRIRTRPPRLPRPRPRPFWYPRP	-0.374

Sequence	shrunken log2 fold change
RRIRLRPPRLPRPRPRPGMKPRP	-0.0618
RRIRLRPPRLPRPRPRPCPRPRP	0.0559
RRIRKRPPRLPRPRPRPNNRPRP	0.0938
RRIRIRPPRLPRPRPRPWRNPRP	-0.0466
RRIRFRPPRLPRPRPRPVNTPRP	-0.377
RRIRIRPPRLPRPRPRPKQVPRP	-0.118
RRIRMRPPRLPRPRPRPTRNPRP	0.212
RRIRERPPRLPRPRPRPSSSPRP	0.307
RRIRIRPPRLPRPRPRPKNGPRP	-0.202
RRIRIRPPRLPRPRPRPSNTPRP	-0.515
RRIRARPPRLPRPRPRPFCGPRP	-0.0184
RRIRLRPPRLPRPRPRPKMCPRP	-0.0794
RRIRWRPPRLPRPRPRPHWWPRP	0.629
RRIRGRPPRLPRPRPRPWNLPRP	0.000264
RRIRERPPRLPRPRPRPWQQPRP	0.015
RRIRGRPPRLPRPRPRPDSMPRP	0.245
RRIRGRPPRLPRPRPRPWFCPRP	-0.444
RRIRYRPPRLPRPRPRPLKGPRP	-0.00142
RRIRARPPRLPRPRPRPRICPRP	0.29
RRIRARPPRLPRPRPRPDDGPRP	-0.078
RRIRERPPRLPRPRPRPYYPPRP	-0.14
RRIRRRPPRLPRPRPRPRLHPRP	0.435
RRIRNRPPRLPRPRPRPCYLPRP	-1.19
RRIRWRPPRLPRPRPRPQAMPRP	0.179
RRIRDRPPRLPRPRPRPGWKPRP	0.136

Sequence	shrunken log2 fold change
RRIRRRPPRLPRPRPRPGMTPRP	0.129
RRIRFRPPRLPRPRPRPQTEPRP	-0.00927
RRIRQRPPRLPRPRPRPNLVPRP	0.0528
RRIRIRPPRLPRPRPRPMCSPRP	-0.119
RRIRIRPPRLPRPRPRPNEDPRP	-0.488
RRIRQRPPRLPRPRPRPYPMPRP	0.0253
RRIRHRPPRLPRPRPRPQAKPRP	-0.016
RRIRKRPPRLPRPRPRPDNYPRP	-0.153
RRIRPRPPRLPRPRPRPADLPRP	0.0166
RRIRLRPPRLPRPRPRPSWNPRP	-0.342
RRIRIRPPRLPRPRPRPKSRPRP	-0.108
RRIRVRPPRLPRPRPRPECYPRP	-0.035
RRIRFRPPRLPRPRPRPNLDPRP	-0.18
RRIRTRPPRLPRPRPRPFDDPRP	0.0564
RRIRVRPPRLPRPRPRPMSCPRP	0.0534
RRIRARPPRLPRPRPRPHGMPRP	0.238
RRIRNRPPRLPRPRPRPWHKPRP	-0.0524
RRIRFRPPRLPRPRPRPMWSPRP	-0.227
RRIRHRPPRLPRPRPRPYTEPRP	-0.204
RRIRWRPPRLPRPRPRPFFYPRP	0.0746
RRIRARPPRLPRPRPRPHFPPRP	0.0382
RRIRARPPRLPRPRPRPGSYPRP	0.14
RRIRGRPPRLPRPRPRPQDHPRP	0.254
RRIRYRPPRLPRPRPRPSSNPRP	-0.634
RRIRERPPRLPRPRPRPLAAPRP	-0.0502

Sequence	shrunken log2 fold change
RRIRPRPPRLPRPRPRPLMMPRP	-0.204
RRIRRRPPRLPRPRPRPYSAPRP	-0.137
RRIRARPPRLPRPRPRPLKKPRP	0.0777
RRIRDRPPRLPRPRPRPAMCPRP	0.531
RRIRKRPPRLPRPRPRPWPFPRP	0.0352
RRIRPRPPRLPRPRPRPGIKPRP	-0.0194
RRIRFRPPRLPRPRPRPKHQPRP	-0.131
RRIRDRPPRLPRPRPRPKHPPRP	0.0483
RRIRFRPPRLPRPRPRPVGLPRP	0.0115
RRIRCRPPRLPRPRPRPMKGPRP	0.0113
RRIRFRPPRLPRPRPRPIKMPRP	-0.243
RRIRDRPPRLPRPRPRPVWGPRP	0.67
RRIRIRPPRLPRPRPRPMLSPRP	-0.403
RRIRLRPPRLPRPRPRPWLQPRP	0.0325
RRIRIRPPRLPRPRPRPGDLPRP	-0.223
RRIRYRPPRLPRPRPRPEIDPRP	-0.0347
RRIRLRPPRLPRPRPRPVVEPRP	0.175
RRIRYRPPRLPRPRPRPHRQPRP	-0.0423
RRIRGRPPRLPRPRPRPFNKPRP	-0.158
RRIRERPPRLPRPRPRPNMLPRP	-0.753
RRIRERPPRLPRPRPRPTRCPRP	-0.0341
RRIRCRPPRLPRPRPRPHKSPRP	0.139
RRIRERPPRLPRPRPRPLGHPRP	0.187
RRIRGRPPRLPRPRPRPLCEPRP	1.22
RRIRMRPPRLPRPRPRPDPGPRP	0.46
